Results: article PMC9474520, “Biochemical and structural insights of multifunctional flavin-dependent monooxygenase FlsO1-catalyzed unexpected xanthone formation” (Nature Communications, 2022)

B1: FlsO2 (Micromonospora rosaria) (protein)
chain: MDTDVIVVGAGPTGLMLAGELRLGGARVVLVERLAEPTGQSRGLGFTARAMETLDQRGLLPRFGELETSPRGHFGGVQFDYSVLPDAHFGARGVPQSQTEDVLEKWATETGVDIRRGWELRELTDDGSGVTIVADTPDGTRQLRAAYLVGCDGGQSTVRKLVGFEFEGTPATRGMYLADVVGCALRPRFLGEKLANGMVMAAPLAEGVDRIIVCEHGTPPTERERQVSFEEVAAAWERITGESISHGGSLWVSSFTDATRQATEYRRGRVLLAGDAAHIHLPAAGQGLSVGVQDAANLGWKLAAVVRGHAPEGLLDTYHDERHPVGARLLLNTRVQNAVFLGGEEAEPLRTLFTELISYDTVGRHLAGMVSGLEVRYDVGAGDHPLLGRRLPPRALHGAAGATTTTELLHPATGVLLDLTDDAGLRAVAAGYGDRVAVTVATSDAAEFAGVPALLVRPDGYVAWVGAEPDGLAAALRRWFGEPAPAGQ
notes: expressed from pCSG5102 (previously constructed), E. coli BL21(DE3); purified similarly to FlsO1
B2: FlsO1 (Micromonospora rosaria) (protein)
chain: MNTIDAEVIIVGAGPTGLMLAGELRLNNVSTIVLDRLAEPMQQSRALGFSARTIEEFDQRGLLARFGEVGTIPFGHFGGVPLDYRVIKGGSYGARGIPQSRTEGMLAQRAVELGAELRRGQEVVSIDDDGTGVAVVVRTADGEQTLRAKYLVGADGARSTVRKAAGIDFPGTDPTMEMWLADVAGCDLRLRFSGELVPGGMVMVLPLGPVAQRVVVFEHATGLRNSTEPPTFAEVADAFERLTGEDIRGGKPLWVSWFTDSSRQAAEYRRGRILLAGDAAHIHMPIGGQGMSAGIQDAVNLGWKLAAEIHGHAPEGLLDTYHTERHPVDGRVVMNTLAQRWLYLGGEAMQPLRELLGELVRYPDVQEHLVGMVTGLDIRYDVGAGEHPLLGRRIPNQELVGEFDGSGKSTTFEQLHRGRGVLFAFGDDTAGPQAATGWTDRVDVVRATPHTADPDDPFHGLDAVLVRPDGYVAWVAPAGAGAAGLDEALSRWFGPSR
notes: (His)6-tagged, pET28a (pCSG5205), E. coli BL21(DE3); Ni-NTA; homodimer; crystals from Q108G/R109G surface mutant

Substrate: CC1=CC(=O)[C@@H]2c3cc4cccc(O)c4c(O)c3C(=O)C[C@]2(O)C1
Test: HPLC of dehydrorabelomycin formation
Format: biochemical, Micromonospora rosaria
Settings: 2 mM NADPH, 50 mM phosphate pH 7.0, 30 °C

Protein	Km (0.25 μM enzyme)	Km (0.5 μM enzyme)
B1	143.2 µM	–
B2	–	253.4 µM
